The DeepSol protein solubility set

Experiment: soluble on expression in E. coli; label from the status in PepcDB or PDB records

Sequence | soluble on expression in E. coli
GPGSMHFPALFPEPLATAHASRLHPFPWSSSYESIFLCPPTSLCSSAASMTQPTLTEDELDDALGLAIRAANTAAFISNSVIDDKTNNIVEAQTRNNPNDLVTQCEKHCKEEVLNILRVGTPSYAILSDDMHSEAVLGDGPTWIVGPIDGTVSFKHGLFDFCISIALALRKEPILGVVCAPRLQEVFTAVNNRGAFSNGQRIHVSLVDSLRQSVVLLHHSGTRSDAAVRSVAAMQAELAKLPVQGLRCNGSAALDMCLVAAGRAELFWKAGVNPWNVAAGVIIVREAGGVVHDVESTDSFDLTCRSVCCGCSLDVTKHGVELSLKHNYRSSVLNTSS | not soluble
HGSMTDTYLHETLVFDNKLSYIDNQRDTDGPAILLLPGWCHDHRVYKYLIQELDADFRVIVPNWRGHGLSPSEVPDFGYQEQVKDALEILDQLGVETFLPVSHSHGGWVLVELLEQAGPERAPRGIIMDWLMWAPKPDFAKSLTLLKDPERWREGTHGLFDVWLDGHDEKRVRHHLLEEMADYGYDCWGRSGRVIEDAYGRNGSPMQMMANLTKTRPIRHIFSQPTEPEYEKINSDFAEQHPWFSYAKLGGPTHFPAIDVPDRAAVHIREFATAIRQGQ | soluble
MGSDKIHHHHHHMEVFCDVDDFCAVFIPEWEKTLLTDGTRKRQRAGRMTMSEVMTIIILFQMSHHRDFKNFYIGYLAHFYKSAFPNLLSYTRFLEVMPTALVPLCSDFTCLKSEPTGTEFVDSTRIKVCHNLRIHRHKTLAGLACRGKGTMGWFYGFKLHLIVNHQGGIVAAKVTPANVHDTKPMNEMVRSDMDKLYADKGFISKALSSELQEKGVTLVTNVRKNMKEKVMSLWDRAMLSRRFIIETINDQLKNISQIEHSRHRSGHGFMLNMIAGLIAYQLKDNKPQLNITSAEFNAIAVMAR | not soluble
MDTEDTSGYSSLKSSPQSSDENFFKRLQWGKIRLELKTPEFLKESSELEIEKNEKSGIQKCGENEGENEEKCEFRPVVTPNEIDSHKEWYHRLLMLKLEYKRGERGAFPPFPPPPLPSMMIAASNAVSFNAFDEVKRAAQAKTAKSPSTSSLERRAQRFCPADFQPLPPPHIYIEMIRTLAPHQYIDLTYALAGSVLLEMGVKIPDRYPNLPPKIEPYRDIESEEAAHWTEMSSQSSSEGEYSDASESAKLVQTLNRRKNKERRETRKIRIVASMLTSSTFSMKKKRKNEGLDFKHETFPRDYDYKEKTLSTFIPPRIARRPPIPPPQFFFPPSPHFSREPHSLPPMPMMLPIPLPPMSLSSPISPIHFQKNLQSTPERPSRTDSSRVHAKQIKNDIIIVEKVTDV | not soluble
MSLKSLKAKFRKSDTNEWNKNDDRLLQAVENGDAEKVASLLGKKGASATKHDSEGKTAFHLAAAKGHVECLRVMITHGVDVTAQDTTGHSALHLAAKNSHHECIRRLLQSKCPAESVDSSGKTALHYAAAQGCLQAVQILCEHKSPINLKDLDGNIPLLLAVQNGHSEICHFLLDHGADVNSRNKSGRTALMLACEIGSSNAVEALIKKGADLNLVDSLGYNALHYSKLSENAGIQSLLMSKISQDADLKTEGHHHHHH | soluble
MGHHHHHHSHMPKKKTGARKKAENRREREKQLRASRSTIDLAKHPCNASMECDKCQRRQKNRAFCYFCNSVQKLPICAQCGKTKCMMKSSDCVIKHAGVYSTGLAMVGAICDFCEAWVCHGRKCLSTHACACPLTDAECVECERGVWDHGGRIFSCSFCHNFLCEDDQFEHQASCQVLEAETFKCVSCNRLGQHSCLRCKACFCDDHTRSKVFKQEKGKQPPCPKCGHETQETKDLSMSTRSLKFGRQTGGEEGDGASGYDAYWKNLSSDKYGDTSYHDEEEDEYEAEDDEEEEDEGRKDSDTESSDLFTNLNLGRTYASGYAHYEEQEN | soluble
GGVVVTPRAPYIHDLDGLPMAWDLVEWPIYTYRAKNDARLAIVSSSRGCKQQCSFCSQQLFWSQSWRARSAENFVAELEMLHTVHGVQVAMLSDEIPTFDRQRWVRILDLMIERQVPVKLLMETRVDDILRDADIMDRYREGGVEHIYVGVEAGTQETLDLFKKDTQVEQSKQAIDLINNADIVSETSFVLGMPDDTPESIAQTIELAKHYNPDMAFFLAIAPWPYAELYPQLEEYVATKDYRKYNLVEPVIKPKHMTLEELERQLGKASQQFFMH | not soluble
MAVVRRAVAARGLQMIAKPLTVVPGFDVWPGLLDISAQRALVEAVLAGAEQAPFSNYRTAYGKPMSVAMTALGSLGWTSDARGYRYVDRHPETGRPWPDMPPALLDLWTVLGDPETPPDSCLVNLYRDGARMGLHQDRDEADPRFPVLSISLGDTAVFRIGGVNRKDPTRSLRLASGDVCRLLGPARLAFHGVDRILPGSSSLVPGGGRINLTLRRARTALEHHHHHH | not soluble
MSASVPADLRNLRACLLCSLVKSVESFQKEGCENCEDVLHLKGDEEKVYDCTSANYDGMIAAMSNNESWVCKWQKMQRKVKGMYAISVSGVLPNNIVSELKSLGVRYKPNQRDYSTQFKK | not soluble
MTPMKTYDLIVIGTGPGGYHAAIRAAQLGLKVLAVEAGEVGGVCLNVGCIPTKALLHAAETLHHLKVAEGFGLKAKPELDLKKLGGWRDQVVKKLTGGVGTLLKGNGVELLRGFARLVGPKEVEVGGERYGAKSLILATGSEPLELKGFPFGEDVWDSTRALKVEEGLPKRLLVIGGGAVGLELGQVYRRLGAEVTLIEYMPEILPQGDPETAALLRRALEKEGIRVRTKTKAVGYEKKKDGLHVRLEPAEGGEGEEVVVDKVLVAVGRKPRTEGLGLEKAGVKVDERGFIRVNARMETSVPGVYAIGDAARPPLLAHKAMREGLIAAENAAGKDSAFDYQVPSVVYTSPEWAGVGLTEEEAKRAGYKVKVGKFPLAASGRALTLGGAEGMVKVVGDEETDLLLGVFIVGPQAGELIAEAALALEMGATLTDLALTVHPHPTLSESLMEAAEAFHKQAIHILNR | soluble
SVRCYVEIVEKLPERRPDPATIEGCAQLKPNNYLLAWHTPFNEKGSGFGAATKAMCIGLRYWKPERLETLIEVSVECGRMTHNHPTGFLGSLCTALFVSFAAQGKPLVQWGRDMLRAVPLAEEYCRKTIRHTAEYQEHWFYFEAKWQFYLEERKISKDSENKAIFPDNYDAEEREKTYRKWSSEGRGGRRGHDAPMIAYDALLAAGNSWTELCHRAMFHGGESAATGTIAGCLFGLLYGLDLVPKGLYQDLEDKEKLEDLGAALYRLSTEEK | soluble
MGINVRAVEIQDARAIHRICIQDNVLPYMVFLPSMRVEAMENRIRNLAPNQFEFVAEYDGEVVGFVGLTQSPGRRSHSGDLFIGVDSEYHNKGIGRALLTKMLDLADNWLMLERVELGVLETNPKAKALYEKFGFVEEGVKIGNLKAHGKFINEIMMSRFRPNGLIVHNE | not soluble
MDRQAIEKTAGHLRPLMPTPPEIGLILGSGLGVLADEIEEAVRIPYEDIPGFPVSTVEGHAGRLVYGRLEGATVVAMQGRFHYYEGYSLQEVTFPVRVMKALGVRELIVTNAAGGINERFQPGDFMIISDHINLLGTNPLIGPNDPELGPRFPDMTEAYSRRLRELAKETAARLGVRVHEGVYVANTGPSYETPAEIRMIRTLGGDAVGMSTVPEVIVARHGGIEVLGISCISNMAAGMSDAPLHHDEVVETAERVKTDFLRFVKAIVAEMAKSKRKR | soluble
MGSDKIHHHHHHMIHIKRAPDTETAYLVMKEGFSDYMIPLGLSPEVFQERILERDGNQLEHSFIAYHGERPVAIWLNGLKTIKKKTVMRCGGLAVDPQYRRLGIAKALYDAQLSYAKSLNVDCLMLEVIQGNEPAITLYKSFGYQTVSELGYFHKEESGQVEPLVEIDQVAFERRYIQQDEYIWQQDPGVMKLAKARYYELDGAFIAAVNESIFAILTDEEEVARVATEATRRLAGELYHLQSTNQQVWEELLKAGWQQRDLKQFIMQKPISV | not soluble
MDGDGSSFEQFIMPPSALDRLASLHIEYPMLFQLSNVSVEKTSHCGVLEFTADEGLVYLPYWMMQNMSLEEGDVMQVKNISLVKGTYIKLQPHTQDFLDISNPKAILETTLRSYSCLTTGDTIMVPYNNKQYYINVVEAKPSSAVSIIETDCEVDFAPPLDYKEPEKPQKLTPSNKRPLQVKEEEEPASKVPKFTPFTGSGKRLDGKAQTQTEPEDTKQQEKPTENGKDDEKLSVTTPRQISGKLVFGSNSKSAAKETAKVDDPKNIVQESSTKSDEAKFKVFTGKKYSLNG | soluble
MGSDKIHHHHHHVSKPPTIVSVPMPCGSTIEIVAPGSFHIPRVLADGGLKNYEVHSTAAALALMERSEGAFYDIGANIGVFSLCVASALRRRCHAYEPFPDAATVLDELQVRYQLPIAVHRKGVGQTAGQAQFYLSDRSDMSNSLNPNFRKHRGVLDVEVTTLEIELKRDKPAVLKIDTETTEDQVITGGLNQIAHHRPSIIVELLNEAIAGKVRKLLLPLGYRCYAIGGGLRLQELSPIETSLEGDGRNWLFSPNPLDQEFADTFNKWRGVLFSI | not soluble
MASMGVPALFRLLSRKFAKVITPVIEAPTEKLPDGTEIEPDLSLPNPNGVECDNLYLDMNGIVHPCSHPEDRPAPETEDEMMVAVFEYTDRILAMVRPRQLLFIAIDGVAPRAKMNQQRSRRFRSSREAALKEEELQAFIEEAKQQGIPIDENATKKKSWDSNCITPGTPFMDTLAKSLRYYIINKLNSDPCWRNVRFILSDASVPGEGEHKIMEFIRSQRVKPEYDPNTHHVVYGLDADLIMLGLATHEPHFRVLREDVFFQQGSTKKTKEERLGIKRLDDVSETNKVPVKKPFIWLNVSILREYLEVELYVPNLPFPFDLERAIDDWVFFIFFVGNDFLPHLPSLDIRDGAVERLTEIWRASLPHMGGYLTLDGSVNLARAEVILSAVGNQEDDIFKRLKQQEDRRNENYRRRQQRESNQESESYVDNVVIQRSVETQSTEVVTSSKSTSVDTKPPKKTQKIDAPAPVDLVNLSEKTSNRSLGATNRELINNRAANRLGLSREAAAVSSVNKLAASALKAQLVSNETLQNVPLEDSIASSSAYEDTDSIESSTPVVHPIDTKVSNVGQKRKAPDSTEENENTDTVRLYEPGYRERYYEQKFHISPDEPEKIREAVKHYVHGLCWVLLYYYQGCPSWTWYYPYHYAPFAADFKDLASIDVKFELNQPFKPYEQLLGVLPAASKNNLPEKLQTLMTDENSEIIDFYPENFTIDLNGKKFEWQGVALLPFIDENRLLNAVSKIYPQLTEEESKRNEDGSTLLFISEHHPMFSELVKQLYSKKRQGKPLKLSGKMAHGLFGKVNTNDSVIPNVSVQCPIDVTSADALQKYGSIDDNQSISLVFEVPKSHFVHKSMLLRGVKMPNRVLTPEDINQVRAERSFSSRRNNGNSAAALEHHHHHH | soluble
AGENLYFQSLMNNFGNEEFDCHFLDEGFTAKDILDQKINEVSSSDDKDAFYVADLGDILKKHLRWLKALPRVTPFYAVKCNDSKAIVKTLAATGTGFDCASKTEIQLVQSLGVPPERIIYANPCKQVSQIKYAANNGVQMMTFDSEVELMKVARAHPKAKLVLRIATDDSKAVCRLSVKFGATLRTSRLLLERAKELNIDVVGVSFHVGSGCTDPETFVQAISDARCVFDMGAEVGFSMYLLDIGGGFPGSEDVKLKFEEITGVINPALDKYFPSDSGVRIIAEPGRYYVASAFTLAVNIIAKKIVLKEQTGSDDEDESSEQTFMYYVNDGVYGSFNCILYDHAHVKPLLQKRPKPDEKYYSSSIWGPTCDGLDRIVERCDLPEMHVGDWMLFENMGAYTVAAASTFNGFQRPTIYYVMSGPAWQLMQQFQNPDFPPEVEEQDASTLPVSCAWESGMKRHRAACASASINV | soluble
MKIAIAGAGAMGSRLGIMLHQGGNDVTLIDQWPAHIEAIRKNGLIADFNGEEVVANLPIFSPEEIDHQNEQVDLIIALTKAQQLDAMFKAIQPMITEKTYVLCLLNGLGHEDVLEKYVPKENILVGITMWTAGLEGPGRVKLLGDGEIELENIDPSGKKFALEVVDVFQKAGLNPSYSSNVRYSIWRKACVNGTLNGLCTILDCNIAEFGALPVSESLVKTLISEFAAVAEKEAIYLDQAEVYTHIVQTYDPNGIGLHYPSMYQDLIKNHRLTEIDYINGAVWRKGQKYNVATPFCAMLTQLVHGKEELLGAK | soluble
